# B1: HDM22A (peptide)
# peptide: EAVFEANQNTKTAK
# notes: Synthetic peptide, 90.3% purity
# B2: HDM49 (peptide)
# peptide: DTVRAEMTKVLAP
# notes: Synthetic peptide, 69.5% purity
# B3: HDM39A (peptide)
# peptide: HDDVVSMEYDLAYKL
# notes: Synthetic peptide, 80.9% purity
# B4: HDM48 (peptide)
# peptide: TAIFQDTVRAEMTK
# notes: Synthetic peptide, 79.1% purity
# B5: HDM06 (peptide)
# peptide: RYVAREQSCRRPN
# notes: Synthetic peptide, 79.7% purity
# B6: HDM21A (peptide)
# peptide: KPFQLEAVFEANQNTK
# notes: Synthetic peptide, 90.1% purity
# B7: HDM33 (peptide)
# peptide: LDMRNIQVRGLKQ
# notes: Synthetic peptide, 70.3% purity
# B8: HDM40A (peptide)
# peptide: VSMEYDLAYKLGDLH
# notes: Synthetic peptide, 66.9% purity
# B9: HDM03C (peptide)
# peptide: RNQSLDLAEQELVDCASQH
# notes: Synthetic peptide, 60.1% purity
# B10: HDM02 (peptide)
# peptide: RTVTPIRMQGGCG
# notes: Synthetic peptide, 79.6% purity
# B11: HDM21 (peptide)
# peptide: KPFQLEAVFEANQNT
# notes: Synthetic peptide, 88.7% purity
# B12: HDM21B (peptide)
# peptide: RGKPFQLEAVFEANQNT
# notes: Synthetic peptide, 82.6% purity
# B13: HDM26A (peptide)
# peptide: DGVLACAIATHAKIR
# notes: Synthetic peptide
# B14: HDM34 (peptide)
# peptide: RNIQVRGLKQMKRVG
# notes: Synthetic peptide, 74.7% purity
# B15: HDM23A (peptide)
# peptide: DGLEVDVPGIDPNACH
# notes: Synthetic peptide, 66.7% purity
# B16: HDM01 (peptide)
# peptide: IDLRQMRTVTPIR
# notes: Synthetic peptide, 79.2% purity
# B17: HDM09A (peptide)
# peptide: REALAQTHSAIAVI
# notes: Synthetic peptide, 69.6% purity
# What was measured:
# [1] = target: T1, human MHC class II allotype HLA-DRB1*0401 (human); test: competitive MHC class II binding assay; competitor control peptide influenza haemagglutinin 307-319;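 further: each test peptide was scored on how well it displaces the known control binder from each human MHC class II allotype studied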
# T1 construct: Source and construct of the MHC protein in the assay are not described
# [2] = target: T2, human MHC class II allotype HLA-DRB1*1101 (human); test: as above
# T2 construct: Source and construct of the MHC protein in the assay are not described
# [3] = target: T3, human MHC class II allotype DQA1*0102/DQB1*0602 (human, UniProt P01920 33-230, limits assumed); test: competitive MHC class II binding assay; competitor control peptide human insulin B 1-15
# T3 construct: Source and construct of the MHC protein in the assay are not described
# T3 MHC II alpha: not shown
# T3 MHC II beta: not shown
# [4] = target: T4, human MHC class II allotype HLA-DRB1*1501 (human); test: competitive MHC class II binding assay; competitor control peptide myelin basic protein 85-99
# T4 construct: Source and construct of the MHC protein in the assay are not described
# [5] = target: T5, human MHC class II allotype HLA-DRB1*0701 (human); test: competitive MHC class II binding assay; competitor control peptide influenza haemagglutinin 307-319;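 further: each test peptide was scored on how well it displaces the known control binder from each human MHC class II allotype studied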
# T5 construct: Source and construct of the MHC protein in the assay are not described
# [6] = target: T6, human MHC class II allotype HLA-DRB1*0301 (human); test: competitive MHC class II binding assay; competitor control peptide hsp 65 2-16
# T6 construct: Source and construct of the MHC protein in the assay are not described
# [7] = target: T7, human MHC class II allotype HLA-DRB1*0101 (human); test: competitive MHC class II binding assay; competitor control peptide influenza haemagglutinin 307-319;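 further: each test peptide was scored on how well it displaces the known control binder from each human MHC class II allotype studied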
# T7 construct: Source and construct of the MHC protein in the assay are not described
# [8] = target: T8, human MHC class II allotype HLA-DRB1*1301 (human); test: competitive MHC class II binding assay; competitor control peptide HLA-DQB1*0603 21-36
# T8 construct: Source and construct of the MHC protein in the assay are not described
Binder,ratio of its own IC50 to that of the control peptide [2],ratio of its own IC50 to that of the control peptide [3],ratio of its own IC50 to that of the control peptide [5],other results
B1,80,,,ratio of its own IC50 to that of the control peptide [1]: 329
B2,,1.7,,ratio of its own IC50 to that of the control peptide [4]: 671
B3,,0.1,0.71,ratio of its own IC50 to that of the control peptide [1]: 76.2
B4,13.6,,15.7,ratio of its own IC50 to that of the control peptide [6]: 211
B5,30.4,0.86,,
B6,10.3,,,ratio of its own IC50 to that of the control peptide [1]: 52.2; ratio of its own IC50 to that of the control peptide [7]: 200
B7,41.5,,46.5,ratio of its own IC50 to that of the control peptide [8]: 263
B8,6,,2.29,
B9,,0.16,,
B10,,0.03,,ratio of its own IC50 to that of the control peptide [4]: 80
B11,11.7,,,ratio of its own IC50 to that of the control peptide [1]: 11.2; ratio of its own IC50 to that of the control peptide [7]: 92
B12,4.1,,,ratio of its own IC50 to that of the control peptide [1]: 0.78; ratio of its own IC50 to that of the control peptide [7]: 13.5
B13,,0.61,16.3,ratio of its own IC50 to that of the control peptide [7]: 42.3
B14,3.38,,,ratio of its own IC50 to that of the control peptide [8]: 3.7; ratio of its own IC50 to that of the control peptide [4]: 769
B15,,0.76,,ratio of its own IC50 to that of the control peptide [6]: 347
B16,,,16,ratio of its own IC50 to that of the control peptide [6]: 19.2
B17,21.1,,0.49,ratio of its own IC50 to that of the control peptide [4]: 200

# From patent US9340580B2, “Peptide with multiple epitopes” (priority 2007, dated 2016)
